Experimental data taken from EP2830663B1 (Sorrento Therapeutics, Inc., dated 2019).

Target: VEGFR2 on HUVECs (UniProt P35968 20-1356, limits assumed)
Test: cell-based or functional assay

VEGFR2 on HUVECs, sequence (P35968 20-1356 limits assumed): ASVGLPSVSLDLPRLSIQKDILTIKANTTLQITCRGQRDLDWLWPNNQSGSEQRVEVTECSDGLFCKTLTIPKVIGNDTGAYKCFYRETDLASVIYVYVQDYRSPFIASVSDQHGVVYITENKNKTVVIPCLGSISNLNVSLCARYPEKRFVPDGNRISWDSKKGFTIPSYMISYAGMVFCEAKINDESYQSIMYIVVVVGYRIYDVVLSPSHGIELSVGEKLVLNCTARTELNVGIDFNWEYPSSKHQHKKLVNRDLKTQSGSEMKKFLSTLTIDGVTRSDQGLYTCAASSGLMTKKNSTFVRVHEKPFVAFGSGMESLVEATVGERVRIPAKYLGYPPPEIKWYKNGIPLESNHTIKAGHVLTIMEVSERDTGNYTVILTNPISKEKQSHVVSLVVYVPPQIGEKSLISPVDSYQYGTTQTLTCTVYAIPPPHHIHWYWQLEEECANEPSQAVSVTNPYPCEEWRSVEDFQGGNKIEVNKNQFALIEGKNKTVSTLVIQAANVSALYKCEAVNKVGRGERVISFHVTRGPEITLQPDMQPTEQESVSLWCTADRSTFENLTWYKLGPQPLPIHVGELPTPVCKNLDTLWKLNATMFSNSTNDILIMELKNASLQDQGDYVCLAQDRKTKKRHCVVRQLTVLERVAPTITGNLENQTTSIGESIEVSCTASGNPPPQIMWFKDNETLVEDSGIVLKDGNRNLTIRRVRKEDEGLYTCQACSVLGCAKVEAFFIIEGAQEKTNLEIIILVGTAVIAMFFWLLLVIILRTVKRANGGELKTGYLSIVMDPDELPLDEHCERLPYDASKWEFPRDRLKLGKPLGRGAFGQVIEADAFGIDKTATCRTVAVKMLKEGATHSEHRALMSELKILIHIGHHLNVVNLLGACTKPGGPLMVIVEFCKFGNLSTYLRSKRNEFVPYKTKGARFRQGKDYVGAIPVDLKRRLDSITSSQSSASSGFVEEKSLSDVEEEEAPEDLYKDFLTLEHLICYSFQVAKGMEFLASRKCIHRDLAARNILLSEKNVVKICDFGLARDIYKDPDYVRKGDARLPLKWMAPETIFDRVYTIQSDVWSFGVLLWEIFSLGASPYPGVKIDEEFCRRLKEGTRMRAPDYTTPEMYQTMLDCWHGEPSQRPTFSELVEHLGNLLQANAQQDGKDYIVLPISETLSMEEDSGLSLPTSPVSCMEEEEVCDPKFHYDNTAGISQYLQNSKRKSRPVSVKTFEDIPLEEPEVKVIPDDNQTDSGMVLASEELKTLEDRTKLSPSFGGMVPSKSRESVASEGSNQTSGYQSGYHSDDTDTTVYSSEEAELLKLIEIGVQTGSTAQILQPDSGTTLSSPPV

IC50, inhibition of VEGF-induced HUVEC cell migration (Figure 14): 0.53 nM
IC50, inhibition of VEGF-induced HUVEC cell proliferation (Figure 13): 14.9 nM
IC50, inhibition of VEGF-induced HUVEC migration (modified Boyden chamber): 0.5 nM
IC50, inhibition of VEGF-induced HUVEC proliferation: 14 nM
IC50, inhibition of VEGF-induced p44/p42 MAPK (Erk1/2) phosphorylation in HUVECs (ELISA): 0.08 nM
B1: VK-B8 (antibody, V domains shown)
VH: QVQLVQSGAEVKKPGSSVKVSCKAYGGTFGSYGVSWVRRAPGQGLEWMGRLIPIFGTRDYAQKFQGRVTLTADESTNTAYMELSSLRSEDTAVYYCARDGDYYGSGSYYGMDVWGQGTLVTVSS
VL: ETTLTQSPATLSVSPGERATVSCRASQSLGSNLGWFQQKPGQAPRLLIYGASTRATGIPARFSGSGSGTEFTLTISSLQSEDFAVYFCQQYNDWPITFGQGTRLEIK
